Laboratory results reported in article PMC5914118, “Exploiting the Concept of Multivalency with ^68Ga- and ^89Zr-Labelled Fusarinine C-Minigastrin Bioconjugates for Targeting CCK2R Expression” (Contrast Media & Molecular Imaging, 2018).
Marks after values point to notes of the source that are not given here.

Tests used:
[1] = test system: A431-CCK2R/A431-mock tumour xenografted BALB/c nude mice; conditions: mouse, in vivo; for Biodistribution: A431-CCK2R tumour (receptor positive) / Biodistribution: A431-mock tumour (receptor negative) / Biodistribution: Blood / Biodistribution: Bone / Biodistribution: Heart / Biodistribution: Intestine / Biodistribution: Kidneys / Biodistribution: Liver / Biodistribution: Lung / Biodistribution: Muscle / Biodistribution: Pancreas / Biodistribution: Spleen / Biodistribution: Stomach: 1 h
Method: All animal experiments were conducted in compliance with the Austrian and Dutch animal protection laws and with approval of the Austrian Ministry of Science (BMWF-66.011/000604-II/3b/2012 and BMWFW-66.011/0049-WF/II/3b/2014). In vivo stability studies were conducted in 5-week-old female BALB/c mice (in-house breed, ZVTA Innsbruck, Dr. Hermann Dietrich). The biodistribution studies were performed using female 8−10-week-old athymic BALB/c nude mice (Charles River Laboratories, Sulzfeld, Germany). Tumour xenografts were induced by subcutaneous injection of 2 × 10^6 A431-CCK2R cells (receptor positive) in the right and the same amount of A431-mock (receptor negative) in the left flank. Tumours were allowed to grow until they had reached a volume of 0.3–0.6 cm^3. To evaluate the biodistribution profile nude mice (n = 4) were intravenously injected with either 1-2 MBq ^68Ga- or 0.3 MBq ^89Zr-labelled mono-, di-, and trimer (0.1–0.2 nmol). The animals were sacrificed by cervical dislocation after 1 h as well as 2 h and 4 h in case of ^68Ga- and ^89Zr-labelled trimer, followed by the collection of organs and tissue. The collected samples were measured in the gamma counter and the results were calculated as percentage of injected dose per gram tissue (% ID/g).

[2] = assay type: physicochemical
Method: Aliquots (50 μL) of ^68Ga- and ^89Zr-labelled mono-, di-, and trimer (10 μM) were diluted in 450 μL PBS. After adding 500 μL octanol the mixture was vortexed with 1400 rpm (MS 3 basic vortexer, IKA, Staufen, Germany) for 15 min at RT followed by centrifugation for 2 min at 4500 rpm. Subsequently, 100 μL aliquots of the organic and the aqueous layer were collected and logD values were calculated using Excel (n = 3, six replicates) after gamma counter measurement.

Structure (SMILES)	Tumour-to-organ ratio (T/O): A431-mock [1]	Tumour-to-organ ratio (T/O): Blood [1]	Tumour-to-organ ratio (T/O): Bone [1]	Tumour-to-organ ratio (T/O): Heart [1]	Tumour-to-organ ratio (T/O): Intestine [1]	Tumour-to-organ ratio (T/O): Kidneys [1]	Tumour-to-organ ratio (T/O): Liver [1]	Tumour-to-organ ratio (T/O): Lung [1]	Tumour-to-organ ratio (T/O): Muscle [1]	Tumour-to-organ ratio (T/O): Pancreas [1]	Tumour-to-organ ratio (T/O): Spleen [1]	Tumour-to-organ ratio (T/O): Stomach [1]	Biodistribution: A431-CCK2R tumour (receptor positive) [1]	Biodistribution: A431-mock tumour (receptor negative) [1]	Biodistribution: Blood [1]	Biodistribution: Bone [1]	Biodistribution: Heart [1]	Biodistribution: Intestine [1]	Biodistribution: Kidneys [1]	Biodistribution: Liver [1]	other results
CSCC[C@H](NC(=O)[C@H](Cc1c[nH]c2ccccc12)NC(=O)CNC(=O)[C@H](Cc1ccc(O)cc1)NC(=O)[C@H](C)NC(=O)[C@@H](CCC(=O)O)NC(=O)CCSC1CC(=O)N(CCC(=O)NC2CCCN(O)C(=O)C=C(C)CCOC(=O)C(NC(=O)CCN3C(=O)CC(SCCC(=O)N[C@H](CCC(=O)O)C(=O)N[C@@H](C)C(=O)N[C@@H](Cc4ccc(O)cc4)C(=O)NCC(=O)N[C@@H](Cc4c[nH]c5ccccc45)C(=O)N[C@@H](CCSC)C(=O)N[C@@H](CC(=O)O)C(=O)N[C@@H](Cc4ccccc4)C(N)=O)C3=O)CCCN(O)C(=O)C=C(C)CCOC(=O)C(NC(C)=O)CCCN(O)C(=O)C=C(C)CCOC2=O)C1=O)C(=O)N[C@@H](CC(=O)O)C(=O)N[C@@H](Cc1ccccc1)C(N)=O (stereo partly shown) [^89Zr-labelled Dimer, metal not drawn]	11.2 ± 2.3	7.4 ± 2.3^c	7.4 ± 1.2^c	9.8 ± 4.8	12.5 ± 3.1	0.15 ± 0.06	10.3 ± 3.2^c	7.6 ± 2.9^c	7.9 ± 5.3	9.2 ± 3.1^c	10.5 ± 4.5	3.4 ± 1.1	7.69 ± 1.34^ac % ID/g	0.86 ± 0.22 % ID/g	1.17 ± 0.28 % ID/g	1.36 ± 0.42 % ID/g	1.01 ± 0.37 % ID/g	0.73 ± 0.25 % ID/g	55.5 ± 10.3 % ID/g	0.83 ± 0.20 % ID/g	Biodistribution: Lung [1]: 1.16 ± 0.28 % ID/g; Biodistribution: Muscle [1]: 1.51 ± 0.70 % ID/g; Biodistribution: Pancreas [1]: 0.95 ± 0.23^c % ID/g; Biodistribution: Spleen [1]: 0.99 ± 0.40 % ID/g; Biodistribution: Stomach [1]: 2.99 ± 1.13 % ID/g; Distribution coefficient logD (pH 7.4) [2]: −2.83 ± 0.02
CSCC[C@H](NC(=O)[C@H](Cc1c[nH]c2ccccc12)NC(=O)CNC(=O)[C@H](Cc1ccc(O)cc1)NC(=O)[C@H](C)NC(=O)[C@@H](CCC(=O)O)NC(=O)CCSC1CC(=O)N(CCC(=O)NC2CCCN(O)C(=O)C=C(C)CCOC(=O)C(NC(C)=O)CCCN(O)C(=O)C=C(C)CCOC(=O)C(NC(C)=O)CCCN(O)C(=O)C=C(C)CCOC2=O)C1=O)C(=O)N[C@@H](CC(=O)O)C(=O)N[C@@H](Cc1ccccc1)C(N)=O (stereo partly shown) [^68Ga-labelled Monomer, metal not drawn]	16.3 ± 3.3^bd	14.4 ± 3.6^b	17.1 ± 7.4^bd	29.5 ± 9.3^bd	9.4 ± 3.7^b	0.86 ± 0.13^abd	21.1 ± 3.1^abd	11.7 ± 2.1^bd	20.4 ± 1.8^b	16.7 ± 3.0^bd	27.3 ± 6.3^b	4.6 ± 1.1^b	4.86 ± 1.00^d % ID/g	0.30 ± 0.04^b % ID/g	0.35 ± 0.06^ab % ID/g	0.31 ± 0.08^b % ID/g	0.17 ± 0.02^ab % ID/g	0.58 ± 0.17^b % ID/g	5.57 ± 0.57^abd % ID/g	0.23 ± 0.02^ab % ID/g	Biodistribution: Lung [1]: 0.42 ± 0.06^ab % ID/g; Biodistribution: Muscle [1]: 0.20 ± 0.05^b % ID/g; Biodistribution: Pancreas [1]: 0.29 ± 0.02^ab % ID/g; Biodistribution: Spleen [1]: 0.18 ± 0.04^ab % ID/g; Biodistribution: Stomach [1]: 1.07 ± 0.14^ab % ID/g; Distribution coefficient logD (pH 7.4) [2]: −2.99 ± 0.02
